This note sets out measurements from publication PMC4684078.

This test deals with mCherry-p62 delta PB1 (recombinant) (human). The test can be described thus: SEC-MALS; size exclusion chromatography with static light scattering (Superdex 200 10/300, MiniDawn Treos); 25 mM HEPES pH 7.5, 500 mM NaCl, 1 mM DTT. A general note: In gel filtration, larger molecules generally elute earlier.

On to “mCherry-p62 delta PB1 (recombinant) (domain or fragment)”, for which the stoichiometry N (usually the number of molecules, sites or subunits per partner or assembly) turned out to be 3.
